system: Escherichia coli TOP10; test: shrunken log2 fold change of peptide-encoding DNA abundance (4.5 h post-induction vs induction); higher = less antimicrobial activity (less host growth inhibition); conditions: time post-induction: 4.5 h; library: site-saturation at positions 5, 18, 19, 20
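Further: peptides expressed intracellularly from a pBAD plasmid library in pooled LB shake-flask culture, induced with 0.3% L-arabinose, DNA abundance read by NGS, three biological replicates, DESeq2 with apeglm shrinkage.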

Row | Sequence | shrunken log2 fold change
1 | RRIRMRPPRLPRPRPRPVLCPRP | 0.182
2 | RRIRMRPPRLPRPRPRPVPAPRP | 1.11
3 | RRIRMRPPRLPRPRPRPVPNPRP | 0.12
4 | RRIRMRPPRLPRPRPRPVPPPRP | 0.901
5 | RRIRMRPPRLPRPRPRPVQDPRP | 0.32
6 | RRIRMRPPRLPRPRPRPVRHPRP | 0.237
7 | RRIRMRPPRLPRPRPRPVTMPRP | 0.116
8 | RRIRMRPPRLPRPRPRPVWIPRP | -0.0455
9 | RRIRMRPPRLPRPRPRPVYKPRP | -0.014
10 | RRIRMRPPRLPRPRPRPWFQPRP | 0.134
11 | RRIRMRPPRLPRPRPRPWGHPRP | 0.0533
12 | RRIRMRPPRLPRPRPRPWIMPRP | 0.00173
13 | RRIRMRPPRLPRPRPRPWISPRP | 0.00707
14 | RRIRMRPPRLPRPRPRPWIYPRP | -0.169
15 | RRIRMRPPRLPRPRPRPWKYPRP | -0.198
16 | RRIRMRPPRLPRPRPRPWLCPRP | 0.219
17 | RRIRMRPPRLPRPRPRPWLPPRP | -0.0332
18 | RRIRMRPPRLPRPRPRPWMFPRP | 0.00324
19 | RRIRMRPPRLPRPRPRPWMHPRP | -0.128
20 | RRIRMRPPRLPRPRPRPWMKPRP | -0.234
21 | RRIRMRPPRLPRPRPRPWMRPRP | 0.7
22 | RRIRMRPPRLPRPRPRPWMTPRP | 0.0698
23 | RRIRMRPPRLPRPRPRPWSCPRP | -0.0965
24 | RRIRMRPPRLPRPRPRPWSIPRP | -0.0237
25 | RRIRMRPPRLPRPRPRPWTEPRP | 0.0475

Row | Sequence | shrunken log2 fold change
26 | RRIRMRPPRLPRPRPRPWVKPRP | -0.00556
27 | RRIRMRPPRLPRPRPRPWWAPRP | -0.0423
28 | RRIRMRPPRLPRPRPRPWWQPRP | 0.183
29 | RRIRMRPPRLPRPRPRPWYRPRP | -0.277
30 | RRIRMRPPRLPRPRPRPWYTPRP | -0.012
31 | RRIRMRPPRLPRPRPRPYAIPRP | -0.0168
32 | RRIRMRPPRLPRPRPRPYASPRP | -0.0515
33 | RRIRMRPPRLPRPRPRPYCAPRP | -0.515
34 | RRIRMRPPRLPRPRPRPYCCPRP | -0.348
35 | RRIRMRPPRLPRPRPRPYDDPRP | -0.00329
36 | RRIRMRPPRLPRPRPRPYEHPRP | -0.291
37 | RRIRMRPPRLPRPRPRPYEWPRP | -0.0304
38 | RRIRMRPPRLPRPRPRPYFHPRP | -0.614
39 | RRIRMRPPRLPRPRPRPYGFPRP | -0.00952
40 | RRIRMRPPRLPRPRPRPYGHPRP | -0.0791
41 | RRIRMRPPRLPRPRPRPYGTPRP | -0.411
42 | RRIRMRPPRLPRPRPRPYHKPRP | -0.0503
43 | RRIRMRPPRLPRPRPRPYHMPRP | -0.000687
44 | RRIRMRPPRLPRPRPRPYIHPRP | -0.262
45 | RRIRMRPPRLPRPRPRPYKEPRP | 0.0136
46 | RRIRMRPPRLPRPRPRPYLHPRP | -0.437
47 | RRIRMRPPRLPRPRPRPYLLPRP | -0.204
48 | RRIRMRPPRLPRPRPRPYMHPRP | -0.0641
49 | RRIRMRPPRLPRPRPRPYNGPRP | -0.289
50 | RRIRMRPPRLPRPRPRPYNSPRP | -0.22

Row | Sequence | shrunken log2 fold change
51 | RRIRMRPPRLPRPRPRPYNTPRP | -0.862
52 | RRIRMRPPRLPRPRPRPYNWPRP | -0.337
53 | RRIRMRPPRLPRPRPRPYPCPRP | 0.0288
54 | RRIRMRPPRLPRPRPRPYPMPRP | -0.126
55 | RRIRMRPPRLPRPRPRPYPNPRP | -0.021
56 | RRIRMRPPRLPRPRPRPYQLPRP | 0.0393
57 | RRIRMRPPRLPRPRPRPYREPRP | -0.0131
58 | RRIRMRPPRLPRPRPRPYRVPRP | 0.111
59 | RRIRMRPPRLPRPRPRPYSCPRP | -0.706
60 | RRIRMRPPRLPRPRPRPYWIPRP | -0.157
61 | RRIRMRPPRLPRPRPRPYYEPRP | -0.28
62 | RRIRNRPPRLPRPRPRPAACPRP | -0.0409
63 | RRIRNRPPRLPRPRPRPAADPRP | 0.342
64 | RRIRNRPPRLPRPRPRPAAGPRP | 0.698
65 | RRIRNRPPRLPRPRPRPAALPRP | 0.341
66 | RRIRNRPPRLPRPRPRPACEPRP | 0.172
67 | RRIRNRPPRLPRPRPRPACFPRP | 0.0188
68 | RRIRNRPPRLPRPRPRPACKPRP | 0.169
69 | RRIRNRPPRLPRPRPRPACVPRP | 0.0235
70 | RRIRNRPPRLPRPRPRPADPPRP | -0.0809
71 | RRIRNRPPRLPRPRPRPADSPRP | -0.0169
72 | RRIRNRPPRLPRPRPRPAEAPRP | 0.057
73 | RRIRNRPPRLPRPRPRPAEIPRP | -0.107
74 | RRIRNRPPRLPRPRPRPAELPRP | -0.0198
75 | RRIRNRPPRLPRPRPRPAEPPRP | -0.00965

Row | Sequence | shrunken log2 fold change
76 | RRIRNRPPRLPRPRPRPAETPRP | -0.119
77 | RRIRNRPPRLPRPRPRPAEYPRP | 0.0714
78 | RRIRNRPPRLPRPRPRPAFCPRP | 0.0699
79 | RRIRNRPPRLPRPRPRPAHAPRP | 0.116
80 | RRIRNRPPRLPRPRPRPAHEPRP | -0.0423
81 | RRIRNRPPRLPRPRPRPAIQPRP | -0.0231
82 | RRIRNRPPRLPRPRPRPAKGPRP | -0.051
83 | RRIRNRPPRLPRPRPRPALPPRP | 0.248
84 | RRIRNRPPRLPRPRPRPALQPRP | 0.234
85 | RRIRNRPPRLPRPRPRPAMPPRP | 0.236
86 | RRIRNRPPRLPRPRPRPAMTPRP | 0.157
87 | RRIRNRPPRLPRPRPRPAPGPRP | 0.164
88 | RRIRNRPPRLPRPRPRPARDPRP | 0.27
89 | RRIRNRPPRLPRPRPRPASHPRP | 0.0783
90 | RRIRNRPPRLPRPRPRPASYPRP | -0.148
91 | RRIRNRPPRLPRPRPRPAWHPRP | 0.259
92 | RRIRNRPPRLPRPRPRPCAMPRP | -0.132
93 | RRIRNRPPRLPRPRPRPCAVPRP | -0.273
94 | RRIRNRPPRLPRPRPRPCFHPRP | -0.503
95 | RRIRNRPPRLPRPRPRPCFLPRP | -0.389
96 | RRIRNRPPRLPRPRPRPCFNPRP | 0.0695
97 | RRIRNRPPRLPRPRPRPCHPPRP | -0.0698
98 | RRIRNRPPRLPRPRPRPCIKPRP | -0.207
99 | RRIRNRPPRLPRPRPRPCKNPRP | -0.0376
100 | RRIRNRPPRLPRPRPRPCKSPRP | -0.0291

Row | Sequence | shrunken log2 fold change
101 | RRIRNRPPRLPRPRPRPCKTPRP | -0.129
102 | RRIRNRPPRLPRPRPRPCLHPRP | -0.888
103 | RRIRNRPPRLPRPRPRPCMDPRP | -0.129
104 | RRIRNRPPRLPRPRPRPCNMPRP | -0.0735
105 | RRIRNRPPRLPRPRPRPCNSPRP | -0.0484
106 | RRIRNRPPRLPRPRPRPCNTPRP | -0.442
107 | RRIRNRPPRLPRPRPRPCQWPRP | 0.0401
108 | RRIRNRPPRLPRPRPRPCRDPRP | -0.0123
109 | RRIRNRPPRLPRPRPRPCREPRP | -0.109
110 | RRIRNRPPRLPRPRPRPCSCPRP | -0.0018
111 | RRIRNRPPRLPRPRPRPCSMPRP | -0.132
112 | RRIRNRPPRLPRPRPRPCSYPRP | -0.212
113 | RRIRNRPPRLPRPRPRPCTEPRP | -0.347
114 | RRIRNRPPRLPRPRPRPCTNPRP | 0.00408
115 | RRIRNRPPRLPRPRPRPCTRPRP | -0.184
116 | RRIRNRPPRLPRPRPRPCVYPRP | -0.215
117 | RRIRNRPPRLPRPRPRPCYAPRP | -0.424
118 | RRIRNRPPRLPRPRPRPCYIPRP | -0.33
119 | RRIRNRPPRLPRPRPRPCYKPRP | -0.173
120 | RRIRNRPPRLPRPRPRPCYSPRP | -0.596
121 | RRIRNRPPRLPRPRPRPDAGPRP | 0.391
122 | RRIRNRPPRLPRPRPRPDCNPRP | -0.0899
123 | RRIRNRPPRLPRPRPRPDDDPRP | -0.153
124 | RRIRNRPPRLPRPRPRPDDMPRP | -0.107
125 | RRIRNRPPRLPRPRPRPDFDPRP | -0.0771

Row | Sequence | shrunken log2 fold change
126 | RRIRNRPPRLPRPRPRPDFPPRP | -0.0345
127 | RRIRNRPPRLPRPRPRPDFRPRP | -0.0186
128 | RRIRNRPPRLPRPRPRPDGDPRP | -0.194
129 | RRIRNRPPRLPRPRPRPDGMPRP | 0.0319
130 | RRIRNRPPRLPRPRPRPDGWPRP | 0.235
131 | RRIRNRPPRLPRPRPRPDHEPRP | -0.039
132 | RRIRNRPPRLPRPRPRPDHHPRP | 0.109
133 | RRIRNRPPRLPRPRPRPDHKPRP | -0.398
134 | RRIRNRPPRLPRPRPRPDHQPRP | 0.113
135 | RRIRNRPPRLPRPRPRPDICPRP | 0.0866
136 | RRIRNRPPRLPRPRPRPDIHPRP | -0.0173
137 | RRIRNRPPRLPRPRPRPDISPRP | 0.000389
138 | RRIRNRPPRLPRPRPRPDIVPRP | -0.0101
139 | RRIRNRPPRLPRPRPRPDKTPRP | -0.0594
140 | RRIRNRPPRLPRPRPRPDLWPRP | 0.551
141 | RRIRNRPPRLPRPRPRPDMNPRP | -0.0522
142 | RRIRNRPPRLPRPRPRPDNAPRP | -0.0737
143 | RRIRNRPPRLPRPRPRPDNRPRP | -0.0135
144 | RRIRNRPPRLPRPRPRPDSGPRP | -0.166
145 | RRIRNRPPRLPRPRPRPDTAPRP | -0.235
146 | RRIRNRPPRLPRPRPRPDTEPRP | -0.0108
147 | RRIRNRPPRLPRPRPRPDTMPRP | -1.25
148 | RRIRNRPPRLPRPRPRPDTWPRP | -0.213
149 | RRIRNRPPRLPRPRPRPDTYPRP | -0.0291
150 | RRIRNRPPRLPRPRPRPDVAPRP | 0.285
